Test results reported in PMC6189496, “Epstein-Barr Virus Nuclear Antigen 3C Inhibits Expression of COBLL1 and the ADAM28-ADAMDEC1 Locus via Interaction with the Histone Lysine Demethylase KDM2B” (Journal of Virology, 2018).

Key:
BMI1 = target: T1, BMI1 (human (endogenous in LCLs), UniProt P35226 1-326); test: co-IP; LCL extracts (10^7 cells lysed in IP buffer, precleared); the cellular protein (RBPJ, BMI1, SUZ12 or KDM2B) immunoprecipitated from 200 ug lysate overnight at 4°C, protein G-Sepharose, four washes; Western blot for EBNA3C; isotype IgG control; mutants quantified by ImageJ as percent relative IP compared to EBNA3C WT; details: partners not purified
T1 construct: BMI1, endogenous in lymphoblastoid cell lines, immunoprecipitated with anti-BMI1 (A301-694A; Bethyl); also called PRC1 core component BMI1; source: endogenous, LCL lysate
T1 sequence (looked up): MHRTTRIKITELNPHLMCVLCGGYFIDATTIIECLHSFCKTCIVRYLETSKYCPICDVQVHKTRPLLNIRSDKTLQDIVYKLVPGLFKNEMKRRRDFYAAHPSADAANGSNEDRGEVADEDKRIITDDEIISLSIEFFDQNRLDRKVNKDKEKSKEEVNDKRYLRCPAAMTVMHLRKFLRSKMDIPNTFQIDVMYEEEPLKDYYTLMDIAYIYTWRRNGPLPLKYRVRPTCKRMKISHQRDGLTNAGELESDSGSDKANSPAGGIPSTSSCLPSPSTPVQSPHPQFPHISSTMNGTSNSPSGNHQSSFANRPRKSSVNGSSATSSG

[1] = target: T2, histone lysine demethylase KDM2B (human (endogenous in LCLs), UniProt Q8NHM5 1-1336); test: as above; details: partners not purified
T2 construct: KDM2B, endogenous in lymphoblastoid cell lines, immunoprecipitated with anti-KDM2B (09-864; Millipore); also called FBXL10; JHDM1B; source: endogenous, LCL lysate
T2 sequence (looked up): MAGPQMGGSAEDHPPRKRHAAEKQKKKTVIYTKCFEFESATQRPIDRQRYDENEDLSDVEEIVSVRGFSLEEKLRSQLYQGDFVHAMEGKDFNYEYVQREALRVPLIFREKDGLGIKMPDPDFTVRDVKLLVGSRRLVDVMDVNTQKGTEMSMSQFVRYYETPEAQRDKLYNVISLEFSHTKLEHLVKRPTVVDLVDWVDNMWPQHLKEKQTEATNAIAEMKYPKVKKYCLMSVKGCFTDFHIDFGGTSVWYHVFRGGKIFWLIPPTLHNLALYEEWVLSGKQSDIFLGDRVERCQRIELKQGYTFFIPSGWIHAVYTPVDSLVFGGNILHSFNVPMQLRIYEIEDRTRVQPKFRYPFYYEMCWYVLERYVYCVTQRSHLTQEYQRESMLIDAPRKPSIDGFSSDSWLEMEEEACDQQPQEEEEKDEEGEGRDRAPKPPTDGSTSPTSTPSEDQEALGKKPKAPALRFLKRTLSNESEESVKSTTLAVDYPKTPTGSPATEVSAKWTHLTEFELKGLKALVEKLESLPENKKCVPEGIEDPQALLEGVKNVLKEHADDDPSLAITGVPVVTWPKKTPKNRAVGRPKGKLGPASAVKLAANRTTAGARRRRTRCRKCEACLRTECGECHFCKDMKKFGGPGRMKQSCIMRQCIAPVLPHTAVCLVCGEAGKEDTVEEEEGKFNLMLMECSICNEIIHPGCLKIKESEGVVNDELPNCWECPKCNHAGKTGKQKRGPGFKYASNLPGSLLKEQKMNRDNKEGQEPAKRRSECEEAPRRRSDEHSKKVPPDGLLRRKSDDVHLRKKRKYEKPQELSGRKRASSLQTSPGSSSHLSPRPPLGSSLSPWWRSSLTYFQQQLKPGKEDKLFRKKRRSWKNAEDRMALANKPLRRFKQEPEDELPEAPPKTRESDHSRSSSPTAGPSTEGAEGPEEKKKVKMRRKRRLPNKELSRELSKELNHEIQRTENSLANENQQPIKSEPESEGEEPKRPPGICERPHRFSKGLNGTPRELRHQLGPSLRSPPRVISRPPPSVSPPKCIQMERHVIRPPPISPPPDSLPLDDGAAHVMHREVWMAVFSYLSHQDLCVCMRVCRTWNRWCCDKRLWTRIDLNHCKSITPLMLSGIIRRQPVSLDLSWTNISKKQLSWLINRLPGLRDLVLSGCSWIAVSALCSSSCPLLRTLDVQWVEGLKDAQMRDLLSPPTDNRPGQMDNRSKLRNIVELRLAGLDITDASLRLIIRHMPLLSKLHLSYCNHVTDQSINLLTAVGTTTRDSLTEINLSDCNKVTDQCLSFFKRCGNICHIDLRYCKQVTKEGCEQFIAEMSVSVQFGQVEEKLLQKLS

B1: EBNA3C HDmut (209TFGC212 mutated to 209AAAA212) (natural protein)
chain: MESFEGQGDSRQSPDNERGDNVQTTGEHDQDPGPGPPSSGASERLVPEESYSRDQQPWGQSRGDENRGWMQRIRRRRRRRAALSGHLLDTEDNVPPWLPPHDITPYTARNIRDAACRAVKQSHLQALSNLILDSGLDTQHILCFVMAARQRLQDIRRGPLVAEGGVGWRHWLLTSPSQSWPMGYRTATLRTLTPVPNRVGADSIMLTAAAAAQNAARTLNTFSATVWTPPHAGPREQERYAREAEVRFLRGKWQRRYRRIYDLIELCGSLHHIWQNLLQTEENLLDFVRFMGVMSSCNNPAVNYWFHKTIGNFKPYYPWNAPPNENPYHARRGIKEHVIQNAFRKAQIQGLSMLATGGEPRGDATSETSSDEDTGRQGSDVELESSDDELPYIDPNMEPVQQRPVMFVSRVPAKKPRKLPWPTPKTHPVKRTNVKTSDRSDKAEAQSTPERPGPSEQSSVTVEPAHPTPVEMPMVILHQPPPVPKPVPVKPTPPPSRRRRGACVVYDDDVIEVIDVETTEDSSSVSQPNKPHRKHQDGFQRSGRRQKRAAPPTVSPSDTGPPAVGPPAAGPPAAGPPAAGPPAAGPPAAGPPAAGPRILAPLSAGPPAAGPHIVTPPSARPRIMAPPVVRMFMRERQLPQSTGRKPQCFWEMRAGREITQMQQEPSSHLQSATQPTTPRPSWAPSVCALSVMDAGKAQPIESSHLSSMSPTQPISHEEQPRYEDPDAPLDLSLHPDVAAQPAPQAPYQGYQEPPAPQAPYQGYQEPPPPQAPYQGYQEPPAHGLQSSSYPGYAGPWTPRSQHPCYRHPWAPWSQDPVHGHTQGPWDPRAPHLPPQWDGSAGHGQDQVSQFPHLQSETGPPRLQLSLVPLVSSSAPSWSSPQPRAPIRPIPTRFPPPPMPLQDSMAVGCDSSGTACPSMPFASDYSQGAFTPLDINATTPKRPRVEESSHGPARCSQATAEAQEILSDNSEISVFPKDAKQTDYDASTESELD
notes: EBNA3C of Epstein-Barr virus, strain B95.8, with the TFGC (homology domain) motif mutated to alanines; also called homology domain mutant
B1 was tested, and the “percent relative IP compared to EBNA3C WT” value (“percent relative IP” for short) (BMI1) was 60% and the “percent relative IP” value [1] was 8%.

B2: EBNA3C W227S (natural protein)
chain: MESFEGQGDSRQSPDNERGDNVQTTGEHDQDPGPGPPSSGASERLVPEESYSRDQQPWGQSRGDENRGWMQRIRRRRRRRAALSGHLLDTEDNVPPWLPPHDITPYTARNIRDAACRAVKQSHLQALSNLILDSGLDTQHILCFVMAARQRLQDIRRGPLVAEGGVGWRHWLLTSPSQSWPMGYRTATLRTLTPVPNRVGADSIMLTATFGCQNAARTLNTFSATVSTPPHAGPREQERYAREAEVRFLRGKWQRRYRRIYDLIELCGSLHHIWQNLLQTEENLLDFVRFMGVMSSCNNPAVNYWFHKTIGNFKPYYPWNAPPNENPYHARRGIKEHVIQNAFRKAQIQGLSMLATGGEPRGDATSETSSDEDTGRQGSDVELESSDDELPYIDPNMEPVQQRPVMFVSRVPAKKPRKLPWPTPKTHPVKRTNVKTSDRSDKAEAQSTPERPGPSEQSSVTVEPAHPTPVEMPMVILHQPPPVPKPVPVKPTPPPSRRRRGACVVYDDDVIEVIDVETTEDSSSVSQPNKPHRKHQDGFQRSGRRQKRAAPPTVSPSDTGPPAVGPPAAGPPAAGPPAAGPPAAGPPAAGPPAAGPRILAPLSAGPPAAGPHIVTPPSARPRIMAPPVVRMFMRERQLPQSTGRKPQCFWEMRAGREITQMQQEPSSHLQSATQPTTPRPSWAPSVCALSVMDAGKAQPIESSHLSSMSPTQPISHEEQPRYEDPDAPLDLSLHPDVAAQPAPQAPYQGYQEPPAPQAPYQGYQEPPPPQAPYQGYQEPPAHGLQSSSYPGYAGPWTPRSQHPCYRHPWAPWSQDPVHGHTQGPWDPRAPHLPPQWDGSAGHGQDQVSQFPHLQSETGPPRLQLSLVPLVSSSAPSWSSPQPRAPIRPIPTRFPPPPMPLQDSMAVGCDSSGTACPSMPFASDYSQGAFTPLDINATTPKRPRVEESSHGPARCSQATAEAQEILSDNSEISVFPKDAKQTDYDASTESELD
notes: EBNA3C of Epstein-Barr virus, strain B95.8, with W227S in the 226VWTP229 motif
With B2 the “percent relative IP” value [1] was 80%.
